Data reported in the supplement of paper PMC7125110.
± gives the standard error. Fewer inactive variants are shown than the library holds.

B1: glmS ribozyme (parent)
chain: AUAAAAGCGCCAGAACUACAGAAAUGUAGUUGACGAGGAGGAGGUUUAUCGAAUUUUCGGCGGAUGCCUCCAAA

Tests used:
Conditions in all cases: with glucosamine-6-phosphate
[1] = variants of: B1; test: self-cleavage kobs at 640 uM GlcN6P; higher = faster cleavage; RNA array
In short: (§1)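 The measurements used barcoded ribozyme variants on sequenced MiSeq chips, transcribed in situ by E. coli RNA polymerase and tracked at 37 °C with a hybridised Cy3 probe. Glucosamine-6-phosphate, 40 μM to 10 mM in HEPES/KCl/Mg(OAc)2 buffer, was flowed in while tiles were imaged over ~14 h. Baseline-normalised signals, also normalised to non-cleaving reference variants, gave per-tile medians that were fit to one- or two-exponential decays for kobs. kcat and KM resulted from weighted Michaelis–Menten fits across concentrations.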

[2] = variants of: B1; test: self-cleavage kobs at 2500 uM GlcN6P; higher = faster cleavage; RNA array
In short: as §1

[3] = variants of: B1; test: self-cleavage kobs at 10000 uM GlcN6P; higher = faster cleavage; RNA array
In short: as §1

C16U A36U G59U A64U
self-cleavage kobs at 640 uM GlcN6P [1]: < 1e-05 s⁻¹

A14G G35U A52U
self-cleavage kobs at 640 uM GlcN6P [1]: < 1e-05 s⁻¹

A12U A14G U30G A33G G66A
self-cleavage kobs at 640 uM GlcN6P [1]: < 1e-05 s⁻¹ | self-cleavage kobs at 2500 uM GlcN6P [2]: < 1e-05 s⁻¹

A12G G37C U57A
self-cleavage kobs at 640 uM GlcN6P [1]: < 1e-05 s⁻¹ | self-cleavage kobs at 2500 uM GlcN6P [2]: < 1e-05 s⁻¹

G13C G29C
self-cleavage kobs at 640 uM GlcN6P [1]: 2.89e-05 ± 9.5e-06 s⁻¹ | self-cleavage kobs at 2500 uM GlcN6P [2]: 3.23e-05 ± 1.2e-05 s⁻¹ | self-cleavage kobs at 10000 uM GlcN6P [3]: 9.98e-05 ± 2.1e-05 s⁻¹

G13A A15C G60U
self-cleavage kobs at 640 uM GlcN6P [1]: < 1e-05 s⁻¹

C16U U46C A53U
self-cleavage kobs at 640 uM GlcN6P [1]: 0.000328 ± 7.3e-05 s⁻¹ | self-cleavage kobs at 2500 uM GlcN6P [2]: 0.00078 ± 0.00025 s⁻¹

G13U U31A U45G A48C
self-cleavage kobs at 640 uM GlcN6P [1]: < 1e-05 s⁻¹ | self-cleavage kobs at 2500 uM GlcN6P [2]: < 1e-05 s⁻¹

A14C A33C A53U U55A G60U
self-cleavage kobs at 640 uM GlcN6P [1]: < 1e-05 s⁻¹ | self-cleavage kobs at 2500 uM GlcN6P [2]: < 1e-05 s⁻¹

C16G A36C G51A G59C C61G
self-cleavage kobs at 640 uM GlcN6P [1]: < 1e-05 s⁻¹ | self-cleavage kobs at 2500 uM GlcN6P [2]: < 1e-05 s⁻¹

A12G A15U U45C G59A
self-cleavage kobs at 640 uM GlcN6P [1]: < 1e-05 s⁻¹ | self-cleavage kobs at 2500 uM GlcN6P [2]: < 1e-05 s⁻¹

C16U A39U A42C
self-cleavage kobs at 640 uM GlcN6P [1]: 8.5e-05 ± 2.3e-05 s⁻¹ | self-cleavage kobs at 2500 uM GlcN6P [2]: 0.000172 ± 3.6e-05 s⁻¹

A14C G37A A39U C68A
self-cleavage kobs at 640 uM GlcN6P [1]: < 1e-05 s⁻¹

A12C A14U C16G G35C G62U
self-cleavage kobs at 640 uM GlcN6P [1]: < 1e-05 s⁻¹

A15G G35C A42U C50G C68A C71U
self-cleavage kobs at 640 uM GlcN6P [1]: < 1e-05 s⁻¹ | self-cleavage kobs at 2500 uM GlcN6P [2]: < 1e-05 s⁻¹

A15U U31C U55G G63U
self-cleavage kobs at 640 uM GlcN6P [1]: < 1e-05 s⁻¹

C16A G51U C67G
self-cleavage kobs at 640 uM GlcN6P [1]: 0.000109 ± 4.2e-05 s⁻¹

A14U A36C U47C
self-cleavage kobs at 640 uM GlcN6P [1]: < 1e-05 s⁻¹

A12C G32C G62A G63U
self-cleavage kobs at 640 uM GlcN6P [1]: < 1e-05 s⁻¹ | self-cleavage kobs at 2500 uM GlcN6P [2]: < 1e-05 s⁻¹

A14U C58A C70A
self-cleavage kobs at 640 uM GlcN6P [1]: 7.42e-05 ± 2.4e-05 s⁻¹

A14U A15G G60U G66A
self-cleavage kobs at 640 uM GlcN6P [1]: < 1e-05 s⁻¹

A15C G38U C58A
self-cleavage kobs at 640 uM GlcN6P [1]: < 1e-05 s⁻¹

A12G A48C A52U
self-cleavage kobs at 640 uM GlcN6P [1]: < 1e-05 s⁻¹ | self-cleavage kobs at 2500 uM GlcN6P [2]: < 1e-05 s⁻¹

C16A A36G U65G C71U
self-cleavage kobs at 640 uM GlcN6P [1]: < 1e-05 s⁻¹

A12G C16U U49A
self-cleavage kobs at 640 uM GlcN6P [1]: < 1e-05 s⁻¹

A14G C67U C71U
self-cleavage kobs at 640 uM GlcN6P [1]: 0.000875 ± 0.00018 s⁻¹ | self-cleavage kobs at 2500 uM GlcN6P [2]: 0.00249 ± 0.00091 s⁻¹

A15U G40U U55A U56A
self-cleavage kobs at 640 uM GlcN6P [1]: 5.38e-05 ± 1.6e-05 s⁻¹

A15G C34A C71U
self-cleavage kobs at 640 uM GlcN6P [1]: < 1e-05 s⁻¹ | self-cleavage kobs at 2500 uM GlcN6P [2]: < 1e-05 s⁻¹

G13U C50A U69G
self-cleavage kobs at 640 uM GlcN6P [1]: 0.000105 ± 3.4e-05 s⁻¹ | self-cleavage kobs at 2500 uM GlcN6P [2]: 5.37e-05 ± 1.8e-05 s⁻¹

C16U G43C C71A
self-cleavage kobs at 640 uM GlcN6P [1]: < 1e-05 s⁻¹ | self-cleavage kobs at 2500 uM GlcN6P [2]: < 1e-05 s⁻¹

A15C G44C U56C
self-cleavage kobs at 640 uM GlcN6P [1]: < 1e-05 s⁻¹

A14C G40U C67U
self-cleavage kobs at 640 uM GlcN6P [1]: < 1e-05 s⁻¹

G13C U46G A53U U54A
self-cleavage kobs at 640 uM GlcN6P [1]: < 1e-05 s⁻¹

A14U A15G G35U
self-cleavage kobs at 640 uM GlcN6P [1]: < 1e-05 s⁻¹ | self-cleavage kobs at 2500 uM GlcN6P [2]: < 1e-05 s⁻¹

A12U G40C C61A
self-cleavage kobs at 640 uM GlcN6P [1]: < 1e-05 s⁻¹

A12C A14C U31G
self-cleavage kobs at 640 uM GlcN6P [1]: 0.00206 ± 0.00061 s⁻¹ | self-cleavage kobs at 2500 uM GlcN6P [2]: 0.00423 ± 0.0015 s⁻¹

A12G A36C U45C G60U
self-cleavage kobs at 640 uM GlcN6P [1]: < 1e-05 s⁻¹

A12G A42G C61U G63U
self-cleavage kobs at 640 uM GlcN6P [1]: < 1e-05 s⁻¹

A15G A33G A53U
self-cleavage kobs at 640 uM GlcN6P [1]: < 1e-05 s⁻¹

A15U G38U A39C G41U U49G C70G C71G
self-cleavage kobs at 640 uM GlcN6P [1]: < 1e-05 s⁻¹

A12C U46C C67G
self-cleavage kobs at 640 uM GlcN6P [1]: 6.73e-05 ± 1.7e-05 s⁻¹ | self-cleavage kobs at 2500 uM GlcN6P [2]: 0.000179 ± 5.3e-05 s⁻¹

A12C G29A G37A
self-cleavage kobs at 640 uM GlcN6P [1]: 0.000302 ± 8.2e-05 s⁻¹ | self-cleavage kobs at 2500 uM GlcN6P [2]: 0.000142 ± 5.2e-05 s⁻¹

G13C G29U G41U C68A C70A
self-cleavage kobs at 640 uM GlcN6P [1]: < 1e-05 s⁻¹

A12C G41A A42U G51C C68G C70U
self-cleavage kobs at 640 uM GlcN6P [1]: < 1e-05 s⁻¹

A14G G35U
self-cleavage kobs at 640 uM GlcN6P [1]: < 1e-05 s⁻¹ | self-cleavage kobs at 2500 uM GlcN6P [2]: < 1e-05 s⁻¹

A14U A36G U47A
self-cleavage kobs at 640 uM GlcN6P [1]: < 1e-05 s⁻¹ | self-cleavage kobs at 2500 uM GlcN6P [2]: < 1e-05 s⁻¹

C16G A33U G38A G43U C67U
self-cleavage kobs at 640 uM GlcN6P [1]: < 1e-05 s⁻¹ | self-cleavage kobs at 2500 uM GlcN6P [2]: < 1e-05 s⁻¹

C16A C50G G62A A64U
self-cleavage kobs at 640 uM GlcN6P [1]: 6.11e-05 ± 2.7e-05 s⁻¹ | self-cleavage kobs at 2500 uM GlcN6P [2]: 9.04e-05 ± 3.5e-05 s⁻¹

G13A U49A U69A
self-cleavage kobs at 640 uM GlcN6P [1]: 0.00011 ± 3.1e-05 s⁻¹

G13C U31G C61U U69C
self-cleavage kobs at 640 uM GlcN6P [1]: < 1e-05 s⁻¹

A12C A14G G60U
self-cleavage kobs at 640 uM GlcN6P [1]: < 1e-05 s⁻¹

A12G G29C A39G A52C C67A
self-cleavage kobs at 640 uM GlcN6P [1]: < 1e-05 s⁻¹

A14U G40C G44C U45C C70U
self-cleavage kobs at 640 uM GlcN6P [1]: < 1e-05 s⁻¹ | self-cleavage kobs at 2500 uM GlcN6P [2]: < 1e-05 s⁻¹

C16U G29U U31A
self-cleavage kobs at 640 uM GlcN6P [1]: 0.00108 ± 0.00033 s⁻¹ | self-cleavage kobs at 2500 uM GlcN6P [2]: 0.0037 ± 0.00095 s⁻¹

C16A G32A C34A
self-cleavage kobs at 640 uM GlcN6P [1]: < 1e-05 s⁻¹ | self-cleavage kobs at 2500 uM GlcN6P [2]: < 1e-05 s⁻¹ | self-cleavage kobs at 10000 uM GlcN6P [3]: < 1e-05 s⁻¹

A14G A52U G60A
self-cleavage kobs at 640 uM GlcN6P [1]: < 1e-05 s⁻¹

G13U U30G G35C
self-cleavage kobs at 640 uM GlcN6P [1]: < 1e-05 s⁻¹ | self-cleavage kobs at 2500 uM GlcN6P [2]: < 1e-05 s⁻¹ | self-cleavage kobs at 10000 uM GlcN6P [3]: < 1e-05 s⁻¹

C16A G44C U54C
self-cleavage kobs at 640 uM GlcN6P [1]: < 1e-05 s⁻¹

A14U C16G G35U A36U G38U U56C U57G G60U
self-cleavage kobs at 640 uM GlcN6P [1]: < 1e-05 s⁻¹ | self-cleavage kobs at 2500 uM GlcN6P [2]: < 1e-05 s⁻¹

G13U A48C G59U G66U
self-cleavage kobs at 640 uM GlcN6P [1]: < 1e-05 s⁻¹

A12G G44U C70G
self-cleavage kobs at 640 uM GlcN6P [1]: < 1e-05 s⁻¹ | self-cleavage kobs at 2500 uM GlcN6P [2]: < 1e-05 s⁻¹

A14U G44U U54A G59C C68U
self-cleavage kobs at 640 uM GlcN6P [1]: < 1e-05 s⁻¹ | self-cleavage kobs at 2500 uM GlcN6P [2]: < 1e-05 s⁻¹

G13C U31A G38U A39U G40C
self-cleavage kobs at 640 uM GlcN6P [1]: < 1e-05 s⁻¹

A12G G43C G51U G63A U65C C68A
self-cleavage kobs at 640 uM GlcN6P [1]: < 1e-05 s⁻¹ | self-cleavage kobs at 2500 uM GlcN6P [2]: < 1e-05 s⁻¹

A15U G38U G63U
self-cleavage kobs at 640 uM GlcN6P [1]: < 1e-05 s⁻¹

G13U G35U G40U A53U
self-cleavage kobs at 640 uM GlcN6P [1]: < 1e-05 s⁻¹

G13C U55A U69A
self-cleavage kobs at 640 uM GlcN6P [1]: 0.00022 ± 7e-05 s⁻¹

C16A G41U
self-cleavage kobs at 640 uM GlcN6P [1]: < 1e-05 s⁻¹

A14U G40A U56G U57C
self-cleavage kobs at 640 uM GlcN6P [1]: < 1e-05 s⁻¹ | self-cleavage kobs at 2500 uM GlcN6P [2]: < 1e-05 s⁻¹
